Experiments:
Fes = Fes (UniProt P07332); assay: phosphorylation enrichment, bacterial display (enrichment ratio); higher = better substrate or ligand; peptides without Tyr show the background
Fyn = Fyn (UniProt P06241); assay: as above
FGFR3 = FGFR3 (UniProt P22607); assay: as above
MERTK = MERTK (UniProt Q12866); assay: as above
EPHB2 = EPHB2 (UniProt P29323); assay: as above
FGFR1 = FGFR1 (UniProt P11362); assay: as above
AncSZ = assay: as above
Fer (mouse) = assay: as above
Jak2 = Jak2 (UniProt O60674); assay: as above
EPHB1 = EPHB1 (UniProt P54762); assay: as above
c-Src = assay: as above
c-Abl (mouse) = assay: as above
Hck = Hck (UniProt P08631); assay: as above
SHP2-C SH2 = assay: SH2 binding enrichment of the phosphorylated peptide, bacterial display (enrichment ratio); higher = better substrate or ligand; peptides without Tyr show the background
Grb2 SH2 = Grb2 SH2 (UniProt P62993); assay: as above
c-Src SH2 = assay: as above
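Throughout, for SH2 binding enrichment of the phosphorylated peptide, bacterial display: peptide library displayed on the E. coli surface as eCPX fusions, selected cells deep-sequenced, score is each peptide's frequency after selection divided by its frequency in the input.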
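Throughout, for phosphorylation enrichment, bacterial display: 11-residue human phosphosite peptides and single-mutation variants displayed on the E. coli surface, counted by deep sequencing, each peptide's frequency after selection divided by its frequency in the unselected input library; frequency after pTyr selection over input frequency; kinase dosed for 20-30% of maximal phosphorylation in three min.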

Sequence of Fyn (P06241 whole entry, looked up): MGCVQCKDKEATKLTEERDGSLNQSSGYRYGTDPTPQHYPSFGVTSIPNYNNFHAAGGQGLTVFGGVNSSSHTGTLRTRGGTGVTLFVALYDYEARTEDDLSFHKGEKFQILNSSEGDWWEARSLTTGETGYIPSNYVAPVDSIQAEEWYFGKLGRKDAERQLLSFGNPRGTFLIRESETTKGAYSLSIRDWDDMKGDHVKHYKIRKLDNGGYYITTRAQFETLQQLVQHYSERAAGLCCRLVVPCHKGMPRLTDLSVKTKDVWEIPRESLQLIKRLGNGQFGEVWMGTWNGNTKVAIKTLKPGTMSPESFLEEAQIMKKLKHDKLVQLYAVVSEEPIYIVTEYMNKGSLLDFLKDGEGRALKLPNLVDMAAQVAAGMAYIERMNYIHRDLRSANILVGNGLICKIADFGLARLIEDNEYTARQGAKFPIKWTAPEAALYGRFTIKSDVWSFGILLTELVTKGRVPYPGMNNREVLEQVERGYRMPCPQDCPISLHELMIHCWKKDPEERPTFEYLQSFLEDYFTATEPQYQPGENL
Sequence of MERTK (Q12866 whole entry, looked up): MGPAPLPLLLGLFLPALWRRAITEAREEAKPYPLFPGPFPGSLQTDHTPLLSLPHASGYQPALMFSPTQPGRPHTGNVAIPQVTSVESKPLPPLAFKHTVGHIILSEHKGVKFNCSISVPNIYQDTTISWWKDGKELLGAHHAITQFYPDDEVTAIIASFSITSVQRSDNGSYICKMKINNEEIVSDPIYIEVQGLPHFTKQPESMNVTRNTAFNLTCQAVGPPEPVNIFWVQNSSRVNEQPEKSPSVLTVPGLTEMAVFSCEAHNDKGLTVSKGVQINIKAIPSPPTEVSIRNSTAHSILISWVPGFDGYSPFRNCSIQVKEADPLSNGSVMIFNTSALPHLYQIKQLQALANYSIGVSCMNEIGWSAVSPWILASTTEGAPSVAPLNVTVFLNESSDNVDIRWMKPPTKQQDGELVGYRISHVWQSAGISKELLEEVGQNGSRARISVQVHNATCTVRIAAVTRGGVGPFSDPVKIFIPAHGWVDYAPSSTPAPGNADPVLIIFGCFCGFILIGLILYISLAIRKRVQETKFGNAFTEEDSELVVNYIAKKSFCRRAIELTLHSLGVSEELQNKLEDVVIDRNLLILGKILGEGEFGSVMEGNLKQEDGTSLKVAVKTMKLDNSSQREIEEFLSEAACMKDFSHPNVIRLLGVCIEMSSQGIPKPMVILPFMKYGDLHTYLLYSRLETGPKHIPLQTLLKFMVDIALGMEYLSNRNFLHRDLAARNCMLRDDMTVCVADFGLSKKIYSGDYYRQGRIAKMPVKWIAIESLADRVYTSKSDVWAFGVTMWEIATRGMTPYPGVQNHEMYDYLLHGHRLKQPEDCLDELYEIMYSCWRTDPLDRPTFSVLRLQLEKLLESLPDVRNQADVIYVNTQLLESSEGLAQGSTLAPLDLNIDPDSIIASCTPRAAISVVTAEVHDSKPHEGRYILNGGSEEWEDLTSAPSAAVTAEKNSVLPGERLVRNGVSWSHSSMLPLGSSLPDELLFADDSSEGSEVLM
Sequence of FGFR3 (P22607 whole entry, looked up): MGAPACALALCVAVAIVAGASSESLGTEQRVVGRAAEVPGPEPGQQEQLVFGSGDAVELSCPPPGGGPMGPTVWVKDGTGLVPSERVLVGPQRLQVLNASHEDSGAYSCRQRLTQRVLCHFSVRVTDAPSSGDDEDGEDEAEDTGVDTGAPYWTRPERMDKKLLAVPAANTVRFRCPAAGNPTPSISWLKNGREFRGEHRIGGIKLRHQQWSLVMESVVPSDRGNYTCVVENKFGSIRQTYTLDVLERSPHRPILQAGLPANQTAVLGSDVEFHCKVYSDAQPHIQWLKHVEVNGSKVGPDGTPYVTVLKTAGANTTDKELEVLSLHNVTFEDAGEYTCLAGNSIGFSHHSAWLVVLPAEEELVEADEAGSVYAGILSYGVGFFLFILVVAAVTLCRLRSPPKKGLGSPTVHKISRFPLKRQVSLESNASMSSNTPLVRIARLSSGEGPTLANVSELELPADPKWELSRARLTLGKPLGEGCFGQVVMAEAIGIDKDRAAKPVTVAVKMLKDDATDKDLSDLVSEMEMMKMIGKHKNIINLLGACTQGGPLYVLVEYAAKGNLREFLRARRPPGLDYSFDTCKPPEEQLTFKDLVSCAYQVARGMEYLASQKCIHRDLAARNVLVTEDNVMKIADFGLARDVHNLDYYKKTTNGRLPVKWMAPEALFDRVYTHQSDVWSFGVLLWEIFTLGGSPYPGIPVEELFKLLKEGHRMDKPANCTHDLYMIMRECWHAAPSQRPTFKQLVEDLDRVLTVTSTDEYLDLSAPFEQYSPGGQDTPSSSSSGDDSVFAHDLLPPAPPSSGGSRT
Sequence of Jak2 (O60674 whole entry, looked up): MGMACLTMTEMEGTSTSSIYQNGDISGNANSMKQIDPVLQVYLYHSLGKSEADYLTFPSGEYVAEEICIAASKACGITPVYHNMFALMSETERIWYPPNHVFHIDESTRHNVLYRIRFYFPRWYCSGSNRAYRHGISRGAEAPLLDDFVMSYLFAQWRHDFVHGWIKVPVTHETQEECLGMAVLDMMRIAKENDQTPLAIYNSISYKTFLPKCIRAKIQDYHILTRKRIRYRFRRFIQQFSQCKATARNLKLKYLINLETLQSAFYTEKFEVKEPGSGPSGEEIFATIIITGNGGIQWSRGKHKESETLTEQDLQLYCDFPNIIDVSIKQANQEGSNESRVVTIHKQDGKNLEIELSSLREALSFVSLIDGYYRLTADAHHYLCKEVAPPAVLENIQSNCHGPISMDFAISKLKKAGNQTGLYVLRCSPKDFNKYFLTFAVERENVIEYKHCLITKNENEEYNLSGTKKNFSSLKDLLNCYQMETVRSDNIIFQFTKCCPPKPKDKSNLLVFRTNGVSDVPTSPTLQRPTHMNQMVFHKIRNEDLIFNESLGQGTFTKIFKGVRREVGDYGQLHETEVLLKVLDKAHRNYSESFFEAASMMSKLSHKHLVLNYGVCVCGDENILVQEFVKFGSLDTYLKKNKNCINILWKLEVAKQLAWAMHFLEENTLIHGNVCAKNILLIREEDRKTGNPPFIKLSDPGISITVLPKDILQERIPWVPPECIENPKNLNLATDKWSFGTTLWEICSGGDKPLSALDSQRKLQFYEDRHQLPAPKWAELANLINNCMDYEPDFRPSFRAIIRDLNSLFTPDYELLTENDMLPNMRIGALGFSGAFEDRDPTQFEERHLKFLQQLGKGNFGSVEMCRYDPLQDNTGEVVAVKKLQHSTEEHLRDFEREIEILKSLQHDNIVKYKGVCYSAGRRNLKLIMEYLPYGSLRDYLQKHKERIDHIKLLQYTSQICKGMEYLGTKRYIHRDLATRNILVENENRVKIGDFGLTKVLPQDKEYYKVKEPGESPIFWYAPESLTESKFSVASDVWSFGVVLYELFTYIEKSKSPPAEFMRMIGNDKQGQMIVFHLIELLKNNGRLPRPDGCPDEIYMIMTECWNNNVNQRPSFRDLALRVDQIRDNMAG
Sequence of FGFR1 (P11362 whole entry, looked up): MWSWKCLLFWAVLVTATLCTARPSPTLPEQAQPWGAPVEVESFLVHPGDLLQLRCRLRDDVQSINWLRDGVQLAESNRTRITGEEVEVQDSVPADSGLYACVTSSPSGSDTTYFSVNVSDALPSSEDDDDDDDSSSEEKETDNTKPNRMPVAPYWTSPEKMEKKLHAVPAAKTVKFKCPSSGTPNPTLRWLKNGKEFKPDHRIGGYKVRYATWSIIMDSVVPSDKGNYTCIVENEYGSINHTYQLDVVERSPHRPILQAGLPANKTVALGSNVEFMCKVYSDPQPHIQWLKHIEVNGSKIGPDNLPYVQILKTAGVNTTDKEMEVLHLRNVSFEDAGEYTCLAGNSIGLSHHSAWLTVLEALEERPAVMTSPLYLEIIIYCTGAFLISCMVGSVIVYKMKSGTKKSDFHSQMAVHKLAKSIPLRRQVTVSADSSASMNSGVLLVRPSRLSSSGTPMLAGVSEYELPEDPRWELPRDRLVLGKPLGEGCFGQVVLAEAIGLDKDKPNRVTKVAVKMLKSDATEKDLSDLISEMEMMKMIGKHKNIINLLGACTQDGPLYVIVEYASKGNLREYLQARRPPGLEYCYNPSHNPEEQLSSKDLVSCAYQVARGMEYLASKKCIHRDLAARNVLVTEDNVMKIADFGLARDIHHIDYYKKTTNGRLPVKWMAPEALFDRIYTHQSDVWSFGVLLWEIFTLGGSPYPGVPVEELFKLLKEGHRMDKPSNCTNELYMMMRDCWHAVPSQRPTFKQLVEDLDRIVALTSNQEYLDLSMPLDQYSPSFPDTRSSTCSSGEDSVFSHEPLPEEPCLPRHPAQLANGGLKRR
Sequence of Hck (P08631 whole entry, looked up): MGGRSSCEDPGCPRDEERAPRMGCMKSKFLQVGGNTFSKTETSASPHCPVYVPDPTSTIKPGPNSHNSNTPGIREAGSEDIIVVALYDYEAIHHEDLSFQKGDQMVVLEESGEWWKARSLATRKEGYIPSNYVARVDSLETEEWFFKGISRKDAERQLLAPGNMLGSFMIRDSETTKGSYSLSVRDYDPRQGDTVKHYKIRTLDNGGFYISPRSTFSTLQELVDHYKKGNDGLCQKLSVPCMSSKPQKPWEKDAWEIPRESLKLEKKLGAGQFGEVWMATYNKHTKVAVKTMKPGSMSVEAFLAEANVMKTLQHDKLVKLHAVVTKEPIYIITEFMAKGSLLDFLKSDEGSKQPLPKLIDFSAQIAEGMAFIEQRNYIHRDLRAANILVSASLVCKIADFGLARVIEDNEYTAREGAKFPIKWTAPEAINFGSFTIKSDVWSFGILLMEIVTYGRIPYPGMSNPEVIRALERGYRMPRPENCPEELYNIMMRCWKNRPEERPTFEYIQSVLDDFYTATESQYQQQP

Sequence | SH2 binding enrichment (SHP2-C SH2) | SH2 binding enrichment (Grb2 SH2) | SH2 binding enrichment (c-Src SH2) | phosphorylation enrichment (Fes) | phosphorylation enrichment (Fyn) | phosphorylation enrichment (FGFR3) | phosphorylation enrichment (MERTK) | phosphorylation enrichment (EPHB2) | phosphorylation enrichment (FGFR1) | phosphorylation enrichment (AncSZ) | phosphorylation enrichment (Fer (mouse)) | phosphorylation enrichment (Jak2) | phosphorylation enrichment (EPHB1) | phosphorylation enrichment (c-Src) | phosphorylation enrichment (c-Abl (mouse)) | phosphorylation enrichment (Hck)
VATRWYRSLEL [CDKL5_Y177_P180L] | 0.551 | 0.717 | 0.373 | 0.742 | 0.385 | 0.473 | 0.366 | 0.368 | 0.436 | 0.825 | 0.357 | 0.576 | 0.447 | 0.314 | 0.468 | 0.432
VAVVDYVEPSP [TXNRD2_Y70] | 0.696 | 0.792 | 0.446 | 0.974 | 0.53 | 0.683 | 0.415 | 0.776 | 0.603 | 1.35 | 0.52 | 0.912 | 0.561 | 0.416 | 0.627 | 0.454
VDHFGYNKDDK [APOB_Y740_T741N] | 0.595 | 0.665 | 0.465 | 0.874 | 0.485 | 0.493 | 0.434 | 0.528 | 0.465 | 1.02 | 0.398 | 1.1 | 0.427 | 0.485 | 0.974 | 0.436
VFLARYGPAWR [CYP2D6_Y124] | 0.703 | 0.948 | 0.572 | 1.21 | 0.434 | 0.501 | 0.472 | 0.598 | 0.468 | 1.12 | 0.413 | 0.793 | 0.405 | 0.603 | 0.52 | 0.548
VGSEDYGWDLT [SPTAN1_Y1792_R1794W] | 0.852 | 0.824 | 0.515 | 1.16 | 0.384 | 0.726 | 0.36 | 0.732 | 0.489 | 1.2 | 0.463 | 0.967 | 0.602 | 0.419 | 0.724 | 0.443
VHSGTYQVMVR [MYBPC3_Y1043_T1046M] | 0.628 | 0.94 | 1.56 | 0.637 | 0.539 | 0.468 | 1.27 | 0.648 | 0.456 | 0.711 | 0.343 | 0.467 | 2.04 | 0.988 | 0.489 | 1.98
VIECSYTSADG [DHCR7_Y382] | 0.601 | 0.837 | 1.63 | 1.39 | 0.478 | 0.623 | 0.423 | 0.538 | 0.544 | 1.02 | 0.496 | 0.934 | 0.524 | 0.556 | 0.825 | 0.471

Second part, led by results:

SH2 binding enrichment (SHP2-C SH2) | SH2 binding enrichment (Grb2 SH2) | SH2 binding enrichment (c-Src SH2) | Sequence | phosphorylation enrichment (Fes) | phosphorylation enrichment (Fyn) | phosphorylation enrichment (FGFR3) | phosphorylation enrichment (MERTK) | phosphorylation enrichment (EPHB2) | phosphorylation enrichment (FGFR1) | phosphorylation enrichment (AncSZ) | phosphorylation enrichment (Fer (mouse)) | phosphorylation enrichment (Jak2) | phosphorylation enrichment (EPHB1) | phosphorylation enrichment (c-Src) | phosphorylation enrichment (c-Abl (mouse)) | phosphorylation enrichment (Hck)
0.673 | 0.779 | 1.32 | TVLEPYADPFF [ZC3H18_Y367_YF] | 0.879 | 0.526 | 0.611 | 0.408 | 0.5 | 0.753 | 1.16 | 0.536 | 0.906 | 0.432 | 0.517 | 0.565 | 0.65
0.88 | 1.21 | 0.762 | TVSSDYLHPQY [CCPG1_Y569_F566S] | 0.681 | 0.365 | 0.54 | 0.315 | 0.531 | 0.528 | 1.28 | 0.442 | 0.536 | 0.43 | 0.355 | 0.521 | 0.407
0.354 | 0.636 | 0.38 | TWSRSYRSDRL [CRYBB1_Y131_S129R] | 0.715 | 0.453 | 0.494 | 0.518 | 0.51 | 0.607 | 0.676 | 0.452 | 0.778 | 0.445 | 0.545 | 0.586 | 0.614
0.882 | 0.881 | 0.48 | TYGVAYRAKDK [CDK11B_Y453_V452A] | 0.807 | 0.812 | 0.537 | 0.621 | 0.592 | 0.791 | 0.712 | 0.38 | 0.578 | 0.357 | 0.829 | 0.567 | 1.15
0.586 | 0.834 | 0.631 | TYQYKYPEGSS [TGM4_Y440_E437Q] | 0.905 | 0.567 | 0.63 | 0.429 | 0.56 | 0.425 | 0.85 | 0.509 | 0.743 | 0.548 | 0.494 | 0.691 | 0.455
0.567 | 0.836 | 0.548 | VAMELYVFRGV [GAN_Y471_G474R] | 1.29 | 0.503 | 0.807 | 0.684 | 0.841 | 0.553 | 1.16 | 0.501 | 1.09 | 0.707 | 0.615 | 0.935 | 0.651
0.805 | 0.766 | 3.75 | VCHELYNTIRD [PBRM1_Y54] | 0.975 | 0.718 | 0.683 | 0.448 | 0.608 | 0.489 | 0.898 | 0.683 | 0.761 | 0.546 | 1.38 | 0.978 | 3.01
1.13 | 0.87 | 0.816 | VFSTDCFRVGG [NTRK2_Y706_Y706C_YF] | 0.971 | 0.945 | 0.602 | 0.549 | 0.462 | 0.565 | 1.02 | 0.761 | 1.07 | 0.588 | 0.44 | 1.04 | 0.685
0.705 | 0.668 | 0.356 | VGNAAYQAGSL [STK36_Y1181_P1185S] | 0.598 | 0.401 | 0.446 | 0.312 | 0.37 | 0.552 | 0.565 | 0.436 | 0.466 | 0.437 | 0.361 | 0.448 | 0.37

— the supplement of paper PMC10065799, “High-throughput profiling of sequence recognition by tyrosine kinases and SH2 domains using bacterial peptide display” (eLife, 2023)
